Three molecules from patent US20240218070A1 (MERUS N V, published 2024) can be followed below.

The target of experiment [1] is T1, human FAP (huFAP) expressed on cells (human, UniProt Q12884 1-760).
T1 construct: also called WI-38 cells
T1 sequence: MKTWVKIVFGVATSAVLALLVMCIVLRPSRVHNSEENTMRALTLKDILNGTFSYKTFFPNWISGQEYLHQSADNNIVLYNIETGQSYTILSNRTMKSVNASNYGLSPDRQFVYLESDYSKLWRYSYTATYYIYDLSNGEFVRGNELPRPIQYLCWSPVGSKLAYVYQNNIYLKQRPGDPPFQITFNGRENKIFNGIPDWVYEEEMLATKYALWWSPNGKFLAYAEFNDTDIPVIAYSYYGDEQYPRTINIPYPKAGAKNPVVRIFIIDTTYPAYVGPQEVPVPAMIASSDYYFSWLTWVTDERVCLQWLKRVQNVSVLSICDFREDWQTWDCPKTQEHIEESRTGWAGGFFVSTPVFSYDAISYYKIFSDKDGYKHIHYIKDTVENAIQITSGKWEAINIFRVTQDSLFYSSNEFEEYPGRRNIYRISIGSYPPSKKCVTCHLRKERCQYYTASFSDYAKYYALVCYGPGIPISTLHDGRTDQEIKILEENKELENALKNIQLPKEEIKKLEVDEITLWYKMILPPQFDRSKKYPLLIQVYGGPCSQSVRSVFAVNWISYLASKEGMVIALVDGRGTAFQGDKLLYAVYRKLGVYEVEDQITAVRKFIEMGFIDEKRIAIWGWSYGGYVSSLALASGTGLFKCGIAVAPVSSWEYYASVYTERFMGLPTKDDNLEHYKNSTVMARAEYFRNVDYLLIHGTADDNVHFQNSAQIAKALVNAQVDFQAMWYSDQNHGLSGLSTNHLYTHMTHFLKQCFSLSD
The experiment is described as follows: FACS titration (10 ug/ml to 3.16 ng/ml) on WI-38 cells. How it is done:
(§1) The human anti-FAP panel was tested on WI-38 cells (endogenously expressing huFAP) and binding was measured by FACS.
(§2) The target cells were harvested, counted, and centrifuged for 5 min at 300 g at 4° C. Cells were then resuspended in FACS buffer at a concentration of 1×10⁶ cells/ml and transferred (200,000 cells/well) to a U-bottom 96-well FACS plate (BD, cat. #353910). Cells were washed by adding 200 μl PBS and centrifuged for 3 min at 300 g at 4 °C. Cells were then centrifuged for 3 min at 300 g at 4° C. and supernatant was discarded. Antibodies were diluted in an 8 steps, semi-log dilution series ranging from 10 ug/ml to 3.16 ng/ml in FACS buffer (50 μ/well), mixed, and incubated for 30 min at 2-8° C. in the dark. A titration of the sibrotuzumab analog was included as positive control and used to normalize data. The negative control TT antibody was included as negative control. Cells were washed by adding 150 μl FACS buffer and centrifuged for 3 min at 300 g at 4° C. Supernatant was discarded, and cells were washed again by adding 200 μl FACS buffer to the plate. Cells were then centrifuged for 3 min at 300 g at 4° C. and afterwards the supernatant was discarded. […] Fluorescence intensity of the cells was then measured on the iQue VBR (Intellicyt).

Experiment [2] has as its target T1, human FAP (huFAP) expressed on cells. The experiment can be described thus: FACS titration (10 ug/ml to 3.16 ng/ml) on WI-38 cells; positive control sibrotuzumab analog. How it is done:
as §1, §2

B1: anti-human FAP bivalent monospecific IgG comprising heavy chain variable region SEQ ID NO: 69 (antibody, V domains shown)
VH: EVQLVETGGGLIQPGGSLRLSCAASGFTVSSNYMSWVRQAPGKGLEWVSVIYSGGSTYYADSVKGRFTISRDNSKNTLYLQMNSLRAEDTAVYYCARGPTDAYPYLDYLWGQGTLVTVSS
VL: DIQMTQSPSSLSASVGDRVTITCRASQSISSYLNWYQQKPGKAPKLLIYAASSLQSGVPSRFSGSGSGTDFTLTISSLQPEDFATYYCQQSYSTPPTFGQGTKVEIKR
notes: IgG1 format, common light chain VK1-39/JK1; also called human/mouse cross-reactive FAP IgG
For the molecule B1, the binding result in experiment [1] was “binds”.

B2: anti-human FAP bivalent monospecific IgG comprising heavy chain variable region SEQ ID NO: 15 (antibody, V domains shown)
VH: QLQLQESGPGLVKPSETLSLTCTVSGGSISSSSYFWAWIRQPPGKGLEFIGNIYYSGSTYYNPSLKSRVTISVDTSKNQFSLKLSSVTAADTAVYYCARPSYYGSGNYYFAFWGQGTLVTVSS
VL: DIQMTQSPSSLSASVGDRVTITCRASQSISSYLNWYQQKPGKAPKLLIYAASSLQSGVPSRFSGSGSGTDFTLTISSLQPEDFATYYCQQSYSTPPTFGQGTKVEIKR
notes: IgG1 format, common light chain VK1-39/JK1
For the molecule B2, in experiment [1], the binding result is reported as “binds”.

B3: anti-human FAP bivalent monospecific IgG comprising heavy chain variable region SEQ ID NO: 19 (antibody, V domains shown)
VH: EVQLVESGGGLVKPGGSLRLSCAASGFPFNYAWMSWVRQAPGKGLEWVGRIKPKTSGGATDYAAPVKDRFTISRDDSRNTLYLQMNSLKTEDTAVYYCSAREDIWNFFFDLWGQGTLVTVSS
VL: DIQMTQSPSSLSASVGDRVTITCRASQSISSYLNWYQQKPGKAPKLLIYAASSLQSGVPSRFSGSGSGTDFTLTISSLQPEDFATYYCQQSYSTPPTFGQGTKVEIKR
notes: as for B2
In the case of B3, in experiment [2], the binding result is recorded as “binds”.
